Data taken from publication PMC4317567.

These substances were tested against fTHP-15 fluorogenic triple-helical peptide substrate.

Substance | Km of triple-helical peptidase activity (hydrolysis of fTHP-15), 27 °C, pH 7.5
MT1-MMP ectodomain N347A (enzyme) | 790 nM
MT1-MMP ectodomain E392A (enzyme) | 1600 nM
MT1-MMP ectodomain R345A (enzyme) | 1700 nM
MT1-MMP ectodomain R330A (enzyme) | 980 nM
MT1-MMP soluble ectodomain, wild type (C127S-substituted) (enzyme) | 820 nM
MT1-MMP catalytic domain, wild type (enzyme) | 8900 nM
MT1-MMP ectodomain R343A (enzyme) | 4300 nM
MT1-MMP ectodomain F360G (enzyme) | 1700 nM
